Laboratory results: PMC10348809, “CsMYB15 positively regulates Cs4CL2-mediated lignin biosynthesis during juice sac granulation in navel orange”

T1: MBP-CsMYB15 (Citrus sinensis Osbeck ('Lane Late' …, UniProt A0A7G7YA61 1-267))
T1 sequence: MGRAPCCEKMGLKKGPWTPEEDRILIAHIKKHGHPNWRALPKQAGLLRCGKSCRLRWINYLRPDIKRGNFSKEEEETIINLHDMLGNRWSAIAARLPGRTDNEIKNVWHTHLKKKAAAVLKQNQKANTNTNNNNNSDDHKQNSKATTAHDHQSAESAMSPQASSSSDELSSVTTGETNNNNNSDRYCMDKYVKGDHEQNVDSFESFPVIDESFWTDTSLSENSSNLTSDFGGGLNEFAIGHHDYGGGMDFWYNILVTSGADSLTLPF

B1: proCs4CL2 probe (dsDNA)
DNA 1: GCAAAAATAACTCACCATCCCCTTTGCTTCCC
DNA 2: GGGAAGCAAAGGGGATGGTGAGTTATTTTTGC
B2: proCs4CL2 unlabeled competitor (dsDNA)
DNA 1: GCAAAAATAACTCACCATCCCCTTTGCTTCCC
DNA 2: GGGAAGCAAAGGGGATGGTGAGTTATTTTTGC

How the values were obtained:
MBP-CsMYB15 [1] = biological target: T1, MBP-CsMYB15; assay: EMSA; not stated (EMSA as in Shi et al., 2020 with minor modifications); conditions: protein: recombinant; tags: MBP; label: 5' FAM on S18; blunt
MBP-CsMYB15 [2] = biological target: T1, MBP-CsMYB15; assay: competition; dose-dependent competition against FAM probe N1; not stated (EMSA as in Shi et al., 2020 with minor modifications); conditions: protein: recombinant; tags: MBP; blunt

Binder	binding result (MBP-CsMYB15 [1])	binding result (MBP-CsMYB15 [2])
B1	binds	–
B2	–	binds
